# Changes are numbered by the printed parent chain.
# B1: antibody of heavy chain SEQ. ID. No. 3 and light chain SEQ. ID. No. 2 (antibody, human IgG1, V domains shown)
# VH: EVQLVESGGGLVQPGGSLKLSCVASGFIFSNHWMNWVRQAPGKGLEWVAEIRSKSINSATHYAESVKGRFTISRDDSKSIVYLQMTDLRTEDTGVYYCSRNYYGSTYDYWGQGTTVTVSS
# VL: DILLTQSPAILSVSPGERVSFSCRASQFVGSSIHWYQQRTNGSPRLLIKYASESMSGIPSRFSGSGSGTDFTLSINTVESEDIADYYCQQSHSWPFTFGSGTNLEVK
# B2: antibody of heavy chain SEQ. ID. No. 5 and light chain SEQ. ID. No. 2 (antibody, human IgG1, V domains shown)
# VH: B1 VH with T86N, R89K
# VL: B1 VL
# B3: antibody of heavy chain SEQ. ID. No. 7 and light chain SEQ. ID. No. 2 (antibody, human IgG1, V domains shown)
# VH: B1 VH with V23A, T86N, D87S, R89K
# VL: B1 VL
# B4: antibody of heavy chain SEQ. ID. No. 6 and light chain SEQ. ID. No. 2 (antibody, human IgG1, V domains shown)
# VH: B1 VH with T86N, D87S, R89K
# VL: B1 VL
# Target: human TNFα (human, UniProt P01375 77-233)
# Sequence (P01375 77-233 limits assumed): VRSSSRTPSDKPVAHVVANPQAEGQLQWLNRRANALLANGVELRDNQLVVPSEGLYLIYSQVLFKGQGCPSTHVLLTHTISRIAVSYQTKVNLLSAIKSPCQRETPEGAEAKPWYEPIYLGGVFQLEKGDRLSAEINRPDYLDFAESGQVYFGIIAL
# Test: cell-based or functional assay
row,Binder,"Ratio of Activities compared to Chimeric Antibody (fold difference, WEHI-164 protection assay at 25 ng/ml)"
1,B1,1.38 fold
2,B2,1.24 fold
3,B3,1.02 fold
4,B4,1.2 fold

# Source: patent US20080206239A1 (ANTITOPE, published 2008)
